Kd data for seven molecules are collected here from patent US20260174847A1, “METHODS OF TREATING DIGESTIVE DISEASES AND COMPOSITIONS THEREOF” (PTM Therapeutics, Inc., priority 2023, published 2026).

Substitutions are numbered along the chain they refer to.

The chains are these.
B1: Clone 4770: Humanized IgG1 antibody, heavy chain variable region HvCh3 (SEQ ID NO: 3), light chain LiCh2 (SEQ ID NO: 6) (antibody, V domains shown)
VH: EVQLVESGGGLVQPGGSLRLSCAASGFTFSTNAMSWVRQAPGKGLEWVARLRPKSDNYATYYADSVKGRFTISRDDSKNTLYLQMNSLRAEDTAVYYCVTGTGFWGQGTTLTVSS
VL: DIVMTQSPDSLAVSLGERVTMNCKSSQSLLNSGNQKNYLTWYQQKPGQPPKLLIYWTSTRESGVPDRFSGSGSGTDFTLTISSVQAEDVAVYYCQNDYTSPYTFGQGTKLEIK
B2: Clone 4765: Humanized IgG1 antibody, heavy chain variable region HvCh2 (SEQ ID NO: 2), light chain LiCh1 (SEQ ID NO: 5) (antibody, V domains shown)
VH: B1 VH with D76N
VL: B1 VL with V19A, M21I, V84L
B3: Clone 4766: Humanized IgG1 antibody, heavy chain variable region HvCh2 (SEQ ID NO: 2), light chain LiCh2 (SEQ ID NO: 6) (antibody, V domains shown)
VH: B1 VH with D76N
VL: B1 VL
B4: Clone 4768: Humanized IgG1 antibody, heavy chain variable region HvCh2 (SEQ ID NO: 2), light chain LiCh4 (SEQ ID NO: 8) (antibody, V domains shown)
VH: B1 VH with D76N
VL: B1 VL with I54F
B5: Clone 4772: Humanized IgG1 antibody, heavy chain variable region HvCh3 (SEQ ID NO: 3), light chain LiCh4 (SEQ ID NO: 8) (antibody, V domains shown)
VH: B1 VH
VL: B1 VL with I54F
B6: Clone 4771: Humanized IgG1 antibody, heavy chain variable region HvCh3 (SEQ ID NO: 3), light chain LiCh3 (SEQ ID NO: 7) (antibody, V domains shown)
VH: B1 VH
VL: B1 VL with V19A, M21I, I54F, V84L
B7: Clone 4769: Humanized IgG1 antibody, heavy chain variable region HvCh3 (SEQ ID NO: 3), light chain LiCh1 (SEQ ID NO: 5) (antibody, V domains shown)
VH: B1 VH
VL: B1 VL with V19A, M21I, V84L

One assay in a line: SPR (Biocore T100) binding affinity to sLeA. The conditions noted are these: Example 3, Table 7, mean. Here is the method: (§1) An in vitro evaluation of the binding affinity to sLeA and sLeC of the humanized antibodies from Example 1 were performed using a Biocore T100 SPR biosensor using a CM7 sensor chip with PBS-p (0.005% Tween-20) running buffer at 25 degrees Celsius. The antibodies were couples to ˜30,000 RU at 50 ug/ml in 10 mM NaAcetate pH 5.0 over an NHS/EDC activated surface. A reference surface was activated and blocked to serve as a control. Carbohydrate samples (sLeA, sLeC and sialyl Lewis X (all from Dextra Labs)) were dissolved in PBS-p running buffer up to a stock concentration of 10 mM. Each was then prepared in a 2-fold dilution series up to 300 μM and each concentration series was tested over the antibody surfaces. Response data were processed by subtracting the responses from the reference surfaces as well as a buffer injection. Binding constants were determined at 25 degrees Celsius.
(§2) Seven of the humanized antibody clones from Example 1 were tested for binding affinity to sLeA, sLeC and […]. Methods used were similar to those described in Example 2 above, except with sLeX only at one concentration of 300 μM.
As usually defined, the Kd is the equilibrium constant for the complex coming apart. In the case of B1, the affinity, expressed as Kd, was 69.1 µM.
In turn, B2 showed a Kd of 732 µM.
The same measure, in the same setting: the figure for B3 is 621 µM; for B4 it is 552 µM; for B5 it is 48.3 µM.
B6: the Kd is 59.2 µM.
Same read-out and setting: the figure for B7 is 81.3 µM.

A further assay in a line: SPR (Biocore T100) binding affinity to sLeC. The conditions noted are these: Example 3, Table 7, mean. Here is the method: as §1, §2
B1 returned a Kd of 93.2 µM.
As to B2, the Kd is 306 µM.
Still for that read-out and setting: the same measure for B3: 538 µM; for B4: 460 µM.
Consider B5, for which the Kd stood at 77.1 µM.
Still for that read-out and setting: the same measure for B6: 85.4 µM.
Still for that read-out and setting: the figure for B7 is 104 µM.
